In publication doi:10.1101/2022.01.31.478542:

Legend:
[1] = turbidity; conditions: other: turbidity (light scattering at 340 nm) of cell-free assembly
[2] = system: P04590; experiment: turbidity; conditions: other: turbidity (light scattering at 340 nm) of cell-free assembly

Substance | fold lower turbidity (A340 nm) at 120 min than WT [1] | normalized A340 nm (turbidity) [1] | also measured
HIV-2 CA-NC protein (Gag amino acids 136-431), CA A41D mutant | 25-fold (A41D) lower than that of WT | – | normalized A340 nm (turbidity), whole time course [1]: low turbidity readings (i.e., < 0.36)
HIV-2 CA-NC protein (Gag amino acids 136-431), CA N127E mutant | 7.0-fold (i.e., G38M, N127E, I152A) | – | –
HIV-2 CA-NC protein (Gag amino acids 136-431), CA G38M mutant | 7.0-fold (i.e., G38M, N127E, I152A) | 0.34 | –
HIV-2 CA-NC protein (Gag amino acids 136-431), CA L19A mutant | – | 1.77 | –
HIV-2 CA-NC protein (Gag amino acids 136-431), wild type | – | – | normalized A340 nm (turbidity), peak at 20 min [2]: peaked at 20 min (i.e., 1.27); normalized A340 nm (turbidity), stable value after the peak [2]: remained stable (i.e., 0.56)
HIV-2 CA-NC protein (Gag amino acids 136-431), CA I152A mutant | 7.0-fold (i.e., G38M, N127E, I152A) | 0.65 | –
